The source of these data is the supplement of paper PMC9170038.

The subject of this data set is MS2 coat protein. In words: apparent KD of MS2 coat protein; designed switch direction (-1 OFF switch, 1 ON switch): -1; higher = weaker reporter binding. In short, it runs like this:
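The reported apparent KD is a per-design median over clusters, from curve fits of normalised cluster fluorescence. Protein titrations used SNAP-549-labelled MS2 coat protein, doubled from 0.7 or 1.5 nM to 3 µM, in Tris-HCl pH 7.5 buffer with KCl, MgCl2, BSA, DTT, tRNA and Tween-20, with no input, 200 uM small-molecule ligand, or an oligonucleotide input. The RNA switches were transcribed on Illumina chips by stalled E. coli RNA polymerase.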

Where [1] appears, read: Eterna round: R95, input ligand: FMN 200 uM.
[2] abbreviates: Eterna round: R95, input ligand: microRNA oligo, concentration not stated.
[3] abbreviates: Eterna round: R95, input ligand: none.
Setting [4] is: input ligand: microRNA oligo, concentration not stated.

With “CUGGGCCGAGGAUAUAUUAUGUGAAACAUGAGGAUCACCCAUGUAAUAUGAUGGAUGUAAAUAGAAGGCGGUCUAG [Mat - Exclusion 5 - JL mod - D27] (puzzle: Exclusion 5)”, the “apparent KD of MS2 coat protein” value stood at 28.2 nM under setting [1], 17.4 nM under setting [2] and 21.3 nM under setting [3].
In the same order, the values of “CUGGUCCGAGGAUAUAUGAUGUGAAACAUGAGGAUCACCCAUGUAAUAUUAUGGAUGAAAAUAGAAGGCGGACUAG [Mat - Exclusion 5 - JL mod - D37] (puzzle: Exclusion 5)” are 52.6 nM, 66.1 nM and 62.7 nM.
In the same order, the values of “CUGGUCCGAGGAUAUAUUAUGUGAAACAUGAGGAUCACCCAUGUUAUAUGAUGGAUGUAAAUAGAAGGCGGACUAG [JL-ex5-3.14] (puzzle: Exclusion 5)” are 27.6 nM, 36.3 nM and 40.3 nM.
In the same order, the values of “CUGGUCCGAGGAUAUAUUAUGUGAUACAUGAGGAUCACCCAUGUUAUAUGAUGGAUGUUAGUAGAAGGCGGACUAC [salish99_ex5_r3_001] (puzzle: Exclusion 5)” are 102 nM, 69.9 nM and 101 nM.
As to “CUGGUGUGAGGAUAUCAGGACACGUAAGCGGGCGUGUCAAAUGAGAAGGCACAUGAGGAUCACCCAUGUGGGAC [Atbeceesxe] (puzzle: Exclusion 4)”, the “apparent KD of MS2 coat protein” value under setting [2] stood at 27.8 nM.
Same read-out and setting: the same measure for “CUGUACAUAGGAUAUAGUUGCUUUUACAUGAGGAUCACCCAUGUCACUCCUCUCUCUCUUCUAGAAGGAUGUUUCU [JR_E5_Sub009] (puzzle: Exclusion 5)”: 68.4 nM; for “CUGUACAUAGGAUAUAGUUGUUUUUACAUGAGGAUCACCCAUGUUACUCCUCUCUCUCUUCUAGAAGGAUGUUUCU [JR_E5_Sub008] (puzzle: Exclusion 5)”: 63.8 nM.
For the sequence “CUGUACUGAGGAUAUACAUGAGGAUCACCCAUGUGCUCCAGCUAGGAAACUAGCAAAAGUAGAAGGCAGUACAG [Mat - Exclusion 3 - Eli Mod - D60] (Eterna round: R97, puzzle: Exclusion 3)”, the “apparent KD of MS2 coat protein” value is, setting by setting: (input ligand: FMN 200 uM) 620 nM; (input ligand: none) 62.5 nM.
“CUGUGCACGCUGCGGUCCUACAUGAGGAUCACCCAUGUGGUCUGGUGGCGUGGGUCACCGGACUUGGCUCGUCUUGG [salish99_S_TOV1_R5_063] (Eterna round: R97, puzzle: Sensor, turn-off variant 1)”: the “apparent KD of MS2 coat protein” value runs as follows: (input ligand: FMN 200 uM) 22 nM; (input ligand: none) 23 nM.
“CUGUUUUCCGCAGGAUAUGCUCCUCCAUUAUUAGCAGAAGGGCGUUGAACAUGAGGAUCACCCAUGUAUGUAAUUGAUUAUUGC [JR_ExcNG1_Sub071] (Eterna round: R96, puzzle: Exclusion NG 1)”: the “apparent KD of MS2 coat protein” value is, setting by setting: (input ligand: FMN 200 uM) 54.3 nM; under setting [4], 26.3 nM; (input ligand: none) 36.3 nM.
As for “CUGUUUUCCGCAGGAUAUGCUCCUCCAUUAUUUGCAGAAGGGCGUUGAACAUGAGGAUCACCCAUGUAUGUAAUUGAUUAUUGC [JR_ExcNG1_Sub070] (Eterna round: R96, puzzle: Exclusion NG 1)”, the “apparent KD of MS2 coat protein” value is, setting by setting: (input ligand: FMN 200 uM) 27.7 nM; under setting [4], 27.5 nM; (input ligand: none) 33.8 nM.
With “CUUAAUUGUGACAUGGGUGACAUGAGGAUCACCCAUGUCACAAGCUUUUUGUUCGUCUUAUAAUUAACCCAUGUCAC [Stov1/13-B3] (Eterna round: R97, puzzle: Sensor, turn-off variant 1)”, the “apparent KD of MS2 coat protein” value was determined as 44.9 nM (input ligand: FMN 200 uM) and 52.7 nM (input ligand: none).
On to “CUUAGACAUGAGGAUCACCCAUGUGAGGAUAUGAUACAAUCAUACUAACAUAAUCACAUCAGAAGGCACAUAUG [Mat - Mod of JL D68] (puzzle: Exclusion 1)”, for which the “apparent KD of MS2 coat protein” value under setting [1] was 34.6 nM, the “apparent KD of MS2 coat protein” value under setting [2] is 55.8 nM and the “apparent KD of MS2 coat protein” value under setting [3] was determined as 52.4 nM.
In the same order, the values of “CUUAGACAUGAGGAUCACCCAUGUGAGGAUAUGAUGAGGAUAAGGAAGGAAGAAGGAAUCAGAAGGCACAUAUG [Mat - Mod of Hyphema D27] (puzzle: Exclusion 1)” are 102 nM, 69.4 nM and 74.2 nM.
In the same order, the values of “CUUAGACAUGAGGAUCACCCAUGUGAGGAUAUGAUGCGAAUAAGGAAGGAAGAAAGCAUCAGAAGGCACAUAUG [Mat - Mod of Hyphema D25] (puzzle: Exclusion 1)” are 161 nM, 139 nM and 104 nM.
Consider “CUUCGACAUGAGGAUCACCCAUGUCAGGAUAUUGUGUAUCUGGUUUUUUACAGAUAGACAAGAAGGGAUGUGUU [LRO-Excl1-01] (puzzle: Exclusion 1)”, for which, under setting [2], the “apparent KD of MS2 coat protein” value was 25.2 nM.
Consider “CUUGUCCGAGGAUAUAUUUUGUGAUACAUGAGGAUCACCCAUGUUAUAAGAUGGAUAUAAAUAGAAGGCGGACGAG [Mat - Exclusion 5 - JL mod - D69] (puzzle: Exclusion 5)”, for which the “apparent KD of MS2 coat protein” value runs as follows: under setting [1], 35.7 nM; under setting [2], 44 nM; under setting [3], 47 nM.
With “CUUGUGUAAGGAUAUGCCUGGCCGUGAGGCCAGAUUGAAUAGCAGAAGGUACAUGAGGAUCACCCAUGUACGGG [jl-ex4-4.60 ViennaUCT mod] (Eterna round: R97, puzzle: Exclusion 4)”, the “apparent KD of MS2 coat protein” value runs as follows: (input ligand: FMN 200 uM) 256 nM; (input ligand: none) 376 nM.
For “CUUGUGUGAGGAUAUGAAUUGCCUGGACAUACAGGCUCCUGUCAGAAGGCACAUGAGGAUCACCCAUGUGGGCA [Andiriso] (Eterna round: R97, puzzle: Exclusion 4)”, the “apparent KD of MS2 coat protein” value (input ligand: FMN 200 uM) is 98.1 nM and the “apparent KD of MS2 coat protein” value (input ligand: none) came out at 411 nM.
As for “CUUGUUUAUGUAGGAUAUGCCUGGCGUGCCUUUGCAGAAGGACAUGAGGAUCACCCAUGUAACAUGAGGCUUACCCUUGUCGCC [salish99_ExNG1_r04_119] (Eterna round: R96, puzzle: Exclusion NG 1)”, the “apparent KD of MS2 coat protein” value by setting is: (input ligand: FMN 200 uM) 80.6 nM; under setting [4], 56.1 nM; (input ligand: none) 68.9 nM.
In the same order, the values of “CUUGUUUAUGUAGGAUAUGCCUGGCGUGCCUUUGCAGAAGGACAUGAGGAUCACCCAUGUGGUAUGAGGCUUACCCUUGUCGCC [salish99_ExNG1_r04_121] (Eterna round: R96, puzzle: Exclusion NG 1)” are 30.6 nM, 21.1 nM and 28.9 nM.
On to “CUUUCGUCUGUGGGUGGUGACAUGAGGAUCACCCAUGUUUUGCUCGUCUUGUCCCGGGCCCGGCGCCCGGGCCCGGG [-38.7, -62.5, A 8%] (Eterna round: R97, puzzle: Sensor, turn-off variant 1)”, for which the “apparent KD of MS2 coat protein” value was 1210 nM (input ligand: FMN 200 uM) and 1340 nM (input ligand: none).
In the case of “CUUUUGUGAGGAUAUCAGUAGUAAAAAAAUAAAAUUACUACUUAGAAGGCACAUGAGGAUCACCCAUGUUCCUC [salish99_ex4_r3_030] (puzzle: Exclusion 4)”, the “apparent KD of MS2 coat protein” value under setting [2] came out at 25.4 nM.
Still for that read-out and setting: the same measure for “CUUUUGUGAGGAUAUCAGUAGUAAAAAAAUAAUAUUACUACUGAGAAGGCACAUGAGGAUCACCCAUGUUCCUC [salish99_ex4_r3_024] (puzzle: Exclusion 4)”: 38.4 nM.
